From a protein production outcome set (Wang et al. 2014) come the findings set out here.

The data set in a line: label from the status in PepcDB records.
For the sequence “MNIILNGGPAELHGTTVADLIAQTAPQKPFAVAVNTVFVPKGAYAETVLNENDKIDIVRPVVGG”, the protein production result is “failed”.

For the sequence “MNILLAMIPAFFWGTTYAVTQFTLPDWPPVLLGALRALPAGLLLLAIKPSLPKKHEWKVLLVLGTINIAFFFGLIFVMALTLPSAISGVGMISVPVFAMLFGWAVYKRQPSAIQGISGAVLIALAWFLFDPSSISLNPIGLGAMLAAIMCIVIGSSVTKSLGTKMHWWTVLTWQLILGGVLLSIAAAVLATINPQPYVHAVQNIDMTNTLGLLWVIVLNTALGYGMYVWLLQRMSVVDFTFGGIANPIAGIVSGLLLLGENFTPLQYSLMVGMIVMSLLPQILTSLRARKEAITV”, the protein production entry was “failed”.

“MNILLLIGGLILILLGANGLTDGAASVAKRFRIPSIVIGLTIVAFGTSAPELTVSVASALKGSADIAIGNVVGSNIFNTLMIVGCTALFAPIIITRNTLRKEIPLCILSSVVLLICANDIFLDNATENILNRVDGLLLLCFFAIFMGYTFAIAFPKSSAAPEPAAPEHTAPEEEIKLLSWWKSILYIIGGLAALIYGGQLFVNGATGIARSMGVSESIIGLTLVAGGTSLPELATSIVAALKKNPEMAIGNVIGSNLFNIFFVLGCSASITPLHLSGITNFDLFTLVGSSILLWLFGLFFAKRTITRIEGSIMILCYVAYTVVLIYNS”: the protein production entry is on record as “failed”.

For the sequence “MNILLRLQLFFQITGHYASYFLAYIFETIFFLIFVFVSLIAMIYLFRKYMARLQLRYGPNRVGKFGSLQLIADAIKLVGKESILPKLRDDFAYKTAPYIVFIGLVVGFILIPYGDFYWIGSLTITHSDVSLILFFGAIAMMPIGEILAGISSHNKYALLGAMRGVAKDVSFEVPMMLSAIALVMMDSAVNKTPLEFSSLVSTQFIPFGILQPLGLFVFMVAMIARSSYTPFDLSESDSEIVSGYSTEYSGMRFGLFYMGMFGSIFLGSLVISLLYLGGYNGPYSSYAGFIYLLIKGLIMVLISFLIWLSMPRIRIDRFVNFGWKILLPIAIINLIWAGFLTLGVIS”, the protein production result is “failed”.

“MNILSRIFARTPSLRTRVVVATAIGAAIPVLIVGTVVWVGITNDRKERLDRRLDEAAGFAIPFVPRGLDEIPRSPNDQDALITVRRGNVIKSNSDITLPKLQDDYADTYVRGVRYRVRTVEIPGPEPTSVAVGATYDATVAETNNLHRRVLLICTFAIGAAAVFAWLLAAFAVRPFKQLAEQTRSIDAGDEAPRVEVHGASEAIEIAEAMRGMLQRIWNEQNRTKEALASARDFAAVSSHELRTPLTAMRTNLEVLSTLDLPDDQRKEVLNDVIRTQSRIEATLSALERLAQGELSTSDDHVPVDITDLLDRAAHDAARIYPDLDVSLVPSPTCIIVGLPAGLRLAVDNAIANAVKHGGATLVQLSAVSSRAGVEIAIDDNGSGVPEGERQVVFERFSRGSTASHSGSGLGLALVAQQAQLHGGTASLENSPLGGARLVLRLPGPS”: the protein production entry was “not failed”.

As for “MNIQLNGQCRCIPETSSIAGLLAEEGFSERRVAVEVNGEIVPRTLHVNYVLREGDRVEIVHALGGG”, the protein production result is given as “failed”.

For the sequence “MNIQRETSGHIAAIVTILIWGTTFISTKVLLADFSPMEILFYRFLMGFIALILVRPNMIPFRNWRQELLFAGAGLFGVTLYFLLENIALTYTYASNVGMIVSIIPMITAVLAHFLLEGEKLRLTFLIGFISALIGLLLITFNGNVVLRLNPLGDIMAAGAALVFGGYSIFMKKLSAYEYHIIELTQRVFLYGLLFMVPALFLFDFHFDLSRFSSASNILNMLFLGIGASALCFATWNYSVGVLGAVKSSAYIYMVPVITIAASVLILHENMTWIALLGGALTLLGLYISELKPKAKLLENGCKMDA”, the protein production result was “failed”.

Turning to “MNIRPAATLVLTRDTDNGIEVLLLQRTWEAVFLPGYYVFPGGAVNAQEPEGRAHVVGVEDADISQTMSLDEGGADYMLAAVRECFEEAGILLAQDASGQLIGADHGVHSERMALFQEEISLAQLCAKHGLTVPLDRLAYLSHWVTPPGPPRRFDTRFFVAVAPEGQVASHDGTETIDHVWIAPAQALEEHRAGARLLGLPTIRTLRVLSEFGTTGEMMRYAHANPPEAFPDQPWPAVRKGKPVMLEPNAPAYDEAVKLDPEGEGSTRAEIVPGEPVEVAAGVIRLTAPNPGMMTGPGTNTYILGHERFTVLDPGPANEAHIERILELTGGVVDQVVVTHTHMDHSPAVAQLKARTGCRVFGWPAPEGAGQDQGFTPDDQPGHEDLIVTEAGILKVLHTPGHASNHLCYLLLDQELLFSGDHIMQGSTVVINPPDGDMKAYIDSMYDLLAEPVRFIAPAHGFLMGQPAAVMDYLITHRLSREHKVWRALEALAPVSLKDLTARAYDDVPAAIHGLAARSALAHLLKLEAEHRAFADDGLWQVVAPD”, the protein production entry is reported as “failed”.

Turning to “MNITVNDRECSAQVGDRLLDIARANHSHIGYFCGGNAICQTCYVRVLEGAELLSPMSDAEKAMLSDKLIKEGTRMACQTLIEKPGKITVLSEVEAAKRLTLENPLEHHHHHH”, the protein production result is “not failed”.

In the case of “MNIVVQSVYDNTQEFEIIKKWRENYIGINPANGNDFEYWESIREDCSYSFYFYYEDQLVGGVRLTPLGHGITMGERQLDLLRFISVPLETLEVNRLVIEERARGKKIMYESLQYCFHWDSRNTTHSELIALCLPHMVPLYRQVGATMIHDNLQSKEMPEKEYSLISINLKGL”, the protein production entry was “failed”.

In the case of “MNIYDQLQAVEDRYEELGELLSDPDVVSDTKRFMELSREEANSRETVAVYREYKQVVQNIADAQEMIKDASGDPELEEMAKEELKNSKVAKEEYEEKLRFLLLPKDPNDDKNIILEIRGAAGGDEAALFAGDLLNMYQKYAENQGWKFEVMEASANGVGGLKEVVAMVSGQSVYSKLKYESGAHRVQRVPVTESQGRVHTSTATVLVMPEVEEVEYEIDPKDLRVDIYHASGAGGQNVNKVATAVRIIHLPTNIKVEMQEERTQQKNRDKAMKIIRARVADHFAQIAQDEQDAERKSTVGTGDRSERIRTYNFPQNRVTDHRIGLTLQKLDSILSGKLDEVIDALILYDQTQKLEELNK”, the protein production entry is listed as “not failed”.

Turning to “MNKEVDLSVSCLGKVKELKYDVIILPWGATEPHNLHLPYLTDCILPHDIAVEAAELALSRSGVRCMVMPPVPFGAHNPGQRELPFCIHTRYATQQAILEDIVSSLHVQGFRKLLILSGHGGNNFKGMIRDLAFEYPDFLIAAANWFEVVSPKGYFEAEIDDHAGESETSVMMHYHPELVNLAEAGDGESKPFAIASLNEKVAWVPRHWDKATVDSGVGNPKKATAEKGERYVKPIVEKLAGLFEEMAQHDLYE”, the protein production entry was “not failed”.

In the case of “MNKGNTLDSIPTDLILEIFSRLSAKSVGRLRCLSKLWRKGEWFFFSSLQPQNLYEKPFLVVAADFHMKFSEDMSHDIYSYASGLIYFPKMLIENEKSGAIRVICNPITGQYAILPKLITLQAARSFLGFDPIDNQFKVLLVNNDIVNNDMDILTLGIGELMSEKLKFIEAKCFFALDDVQLINYKGKLGGISWNNHEVAPVELSMWVLEDVEKQEWSKNVYILPKNVVPNNWLHAAGVTVEGDIVFSEAVVSNPFDVFYFNPEKNTLQHVETHCNHEVFDDENLVNIFVDHVEDLKFDVMKPTYAATSIRPTEQKHKPTSTETSMSRKDHQVRTIDQPQQDRCTFESINNKFDVMCLLDDD”, the protein production entry was “not failed”.

For “MNKKSLLAAVLFAAVMPVSFAQNANVKGAESLSGGSKPNFPEARTLIGEAMKNPETMNDAKTWFVAGQVEERLFTSENLKQTVNQEPDRAMMNDALLRILPFYLKADQLDNMPDQKGKVKPKFTKKIMESLKGNHLYYINAGGYYMEKKDYKKALEAFDQFMQIKELPMFAAVPEISAQDSNSMMVGFFSAVCAYQANDLDRTLEICNKIKDVPYRQNDVYQLIATVYQDKKDTEGYIRMLEEGVQKFPKEAYYLLNLINKYIETGRTEEAISSLERAIADDPQNVQLYDVMAKLYENTQDYDKAEEWLKKGLALDPDNASVCYDLGRVYYNRAADLKGADQVNAETEAKAKEYLQKALPLLEKAYSINPDESWYVLRNVYYNLKMNDKYKELTERHEGK”, the protein production entry is “failed”.

In the case of “MNKLEERSQHRKSRFRFLVISTFWRVLLLLKNDAEPLFHLGNIHYAYGHKASAMNYWKEAVSKNREHEKAWHNLVQCAVIQEEWEQAAEGLTILCRNHPTRFEYMSLYTHALKKLGKKEELEEWYLSHINGPHHEWAIEGLGMLYIRTRREIDAFKLLSPFVRKFPNRPVGLKILGISSIRTNQYEAGLTFLEKSLELKEDKEVKSLVDRVKRLKKVRGGNR”, the protein production entry is given as “failed”.

In the case of “MNKLSEKNTTRLASLDILRGFDLFLLVFFQPVFAALVRQLNLPFLNDILYQFDHEVWEGFRFWDLVMPLFLFMTGASMPFSLSKYVGMSGSYWLVYRRILRRVFLLFIFGMIVQGNLLGLDSSHIYLYSNTLQSIAVGYLIAAVIQLHFSFRWQIGITLLLLFIYWIPMTFLGDFTPAGNFAEQVDRCVLGRFRDGVFWNEDGTWSFSPYYNYTWIWSSLTFGVTVMLGAFAGKIMKEGKANRKKVVQTLSVIGVLLVGLAMLWSLQMPIIKRLWTGSMTLLSGGYCFLLMALFYYWIDYKGHSRGLNWLKVYGMNSITAYLLGEVVNFRCIADSVSYGLKQYIGDYYPVWLTFANYLILFFLLRMMYKRGLFLKV”, the protein production result is listed as “failed”.

Consider “MNKLSIIITYFNNEDYISECIHSLKSQRNQDFDIIVVDDGSTDRSTEILQEALKSYDKDVHFIQLQENTGHAHARNVALEQAHGQYVLFLDADDQLASYAVDYYLQHVNGLDTLIAPIHKFRSQRPQYVDKDKVRLQYASHQKSPNAILRKESACNILFKNAIIKAHQIQFNESLDIYADTSFVLEYLKYAERFVRITNFPFYYRGEVYDPFYGNTLSDQDFTNKFEDHVNSFFDAMQRTNDKRIKNFLIQRMKNEIKSGFDPALRDIKSRYVSLEDALIKIVKALKWNILKDGKVLYNLEILFLSMDDVENAKYVNDLRNKTRLVKNIVLNSKMKERSKYQLSDNEDLVDPNTIVFEAFGGKNYSDSPKYIYEYMQKHYPHLNYIWVFSKPENNNIPGNATKVKKGSQAYYDAYAKAKYWVTNARLPLYLNKKENQMYIQTWHGTPLKRLANDMKVVRMPGTTTANYKKNFYAEASRWDRLVSPNRYSSDIFKSAFWMDEDRIWEIGYPRNDVLVNRQNDTEYIEQIKRDLNLPADKKVIMYAPTWRDDEFVKKGQYLFDLKINLANLQKEIGDEYVILLRMHYLIANALDLHGYDDFAIDVSNYNDISELYLISDALVTDYSSVMFDFGILKRPQFFFAYDIEKYDKGLRGFYMDYMNDLPGEIITDEFKLAEELKQIDQHKVKYQDKIESFYNDFCSIENGKASQYIGDYIYKDIEKKS”, for which the protein production result is recorded as “failed”.

With “MNKMLYGWLLAACCGLPPAFAGDSVDVLAQPALHGPQALRAVLQDVARADARLVAVGERGVVLLSDDNGATWRQATAVPVGVSLTAVQFIDARNGWAVGHAGVVLHSQDGGEHWSVQLDGKRAAALEVQAAEAAADERRLAAAQRLLADGADKPLLALNFTDARNGLVVGAYGVAMRTDDGGRSWQSEIGRLPNGRGLHLYALARQGNQVYIAGEQGLLLRSRDGGEHYEALHGPYDGSYFAATVLPDGRLLLGGLRGSLFASDDGGDSFQALANPTPASINGLRVAGGQLLLANQAGMLLRSGLGAFAAQPVAVSDGLPLTAATTAADGSIVAVGMAGARRLEPSSLSTTTD”, the protein production result is recorded as “failed”.

Turning to “MNKPATIDFATATAIQIPAATAQAEALHDLVPGEARDSLLAVHDVLRRELPQGRLAIYEAGGGSCSVLPPELLSRSQVTVVDIDEDQVRNNTYADEAIRGDVQTYRFGGETFDLVICYNVIEHLPNVDAALLNFRDALKRGGMILIGAPNPRSLSGVVTKYSPHWFHVWFYRHIRGIRDAGLPGEPPFPTFFHPLVTLPRLEAFAAANGLDMTYRREVESPRYPEMRRRKPLFAALVDAGAAMLNAVLPRGTDVRRGDYHVILRKS”, the protein production entry is “failed”.
